Experimental findings from publication PMC3674325 are described below.

What is called Kd is the concentration at which binding is half-saturated. Lower therefore signals a tighter complex.

The target of data set [1] is T1, APOBEC3A (A3A) wild-type (Homo sapiens, UniProt P31941 1-199). The data set can be described thus: NMR titration.
In a further data set the target is APOBEC3A E72Q (Homo sapiens, UniProt P31941 1-199, E72Q). The data set can be described thus: NMR titration.
In data set [2] the target is T1, APOBEC3A (A3A) wild-type. The experiment in a line: EMSA.
Data set [3] concerns the target T1, APOBEC3A (A3A) wild-type. The data set can be described thus: NMR titration. This is another data set of the same source.

T1 sequence (P31941 whole entry): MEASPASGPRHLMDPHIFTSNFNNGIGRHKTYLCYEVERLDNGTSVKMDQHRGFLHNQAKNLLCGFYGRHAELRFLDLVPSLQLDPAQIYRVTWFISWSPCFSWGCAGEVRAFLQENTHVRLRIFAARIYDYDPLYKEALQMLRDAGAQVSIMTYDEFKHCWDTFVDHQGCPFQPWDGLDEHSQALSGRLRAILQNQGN
Chain of APOBEC3A E72Q (P31941 whole entry E72Q): as the sequence (P31941 whole entry) above, with E72Q counted along it

In the data set with APOBEC3A (A3A) wild-type [1], TCATTT (ssDNA, C at position 2 converted to dU during titration) [TCATTT (6-nt; value is for dU product)] returned a Kd of 194 ± 18 µM.
ATTATTTCATTTATT (ssDNA) [ATTATTTCATTTATT (15-nt substrate)] showed a dissociation constant (Kd) in the data set with APOBEC3A E72Q of 55 ± 11 µM.
For the molecule AUUAUUAUUAUUAUUAUUAUUUCAUUUAUUUAUUUAUUUA (ssRNA) [40-nt ssRNA JL931], the “apparent K (half saturation)” value in the data set with APOBEC3A (A3A) wild-type [2] is around 40 µM.
In turn, AAACAAAAA (ssDNA, C deaminated to dU during titration) [AAACAAAAA (value is for dU-containing product)] had a dissociation constant (Kd) with APOBEC3A (A3A) wild-type [1] of 161 ± 19 µM.
The same measure, in the same setting: for AAACCAAAA (ssDNA, C deaminated to dU during titration) [AAACCAAAA (value is for dU-containing product)] the value was 94 ± 11 µM.
AAACCCAAA (ssDNA, C deaminated to dU during titration) [AAACCCAAA (value is for dU-containing product)] yielded a Kd with APOBEC3A (A3A) wild-type [1] of 91 ± 15 µM.
As to ATTTUATTT (ssDNA, dU at position 5) [ATTTUATTT (9-nt product)], the Kd with APOBEC3A (A3A) wild-type [3] amounted to 58 ± 8 µM.
Still for that read-out and setting: for ATTATTTUATTTATT (ssDNA, dU at position 8) [ATTATTTUATTTATT (15-nt product)] the value was 57 ± 11 µM.
With ATTATTATTATTATTATTATTTCATTTATTTATTTATTTA (ssDNA) [40-nt ssDNA JL895], the dissociation constant (Kd) with APOBEC3A (A3A) wild-type [2] was around 80 µM.
